Data published in PMC5864733.

Legend:
Assay in all cases: SEC
[1] = target: CsrA-Cdel (residues 1-44) (enteropathogenic E. coli (EPEC) O127:H6 E2348/69) (UniProt P69913)
[2] = target: CesT-E121A/Y152A (residues 1-156, E121A + Y152A) (enteropathogenic E. coli (EPEC) O127:H6 E2348/69) (UniProt P21244)
[3] = target: CsrA tetra-mutant (residues 1-61, R31A + K38A + H43A + R44A) (enteropathogenic E. coli (EPEC) O127:H6 E2348/69) (UniProt P69913)
[4] = target: CesT-Y152A (residues 1-156, Y152A) (enteropathogenic E. coli (EPEC) O127:H6 E2348/69) (UniProt P21244)
[5] = target: CsrA (residues 1-61), GST tag removed (enteropathogenic E. coli (EPEC) O127:H6 E2348/69) (UniProt P69913)
[6] = target: CesT-E121A (residues 1-156, E121A) (enteropathogenic E. coli (EPEC) O127:H6 E2348/69) (UniProt P21244)

CsrA-Cdel (residues 1-44) (from UniProt P69913 1-44) (domain or fragment)
stoichiometry N [1]: 2

CesT-E121A/Y152A (residues 1-156, E121A + Y152A) (from UniProt P21244 1-156) (natural protein)
stoichiometry N [2]: 2

CsrA tetra-mutant (residues 1-61, R31A + K38A + H43A + R44A) (from UniProt P69913 1-61) (natural protein)
stoichiometry N [3]: 2

CesT-Y152A (residues 1-156, Y152A) (from UniProt P21244 1-156) (natural protein)
stoichiometry N [4]: 2

CsrA (residues 1-61), GST tag removed, P69913 1-61 (natural protein; other documents disagree on this pair)
stoichiometry N [5]: 2

CesT-E121A (residues 1-156, E121A) (from UniProt P21244 1-156) (natural protein)
stoichiometry N [6]: 2
